Measured values as given in publication PMC3182926.

Target: Tri6 (Fusarium graminearum (PH-1; NRRL 31084?), UniProt Q9C1A9 1-218)
Test: EMSA
Settings: protein: recombinant; tags: His (pDEST17; Methods EMSA text says Tri6-HA recombinant protein); label: 32P 5' end

Binder	binding result
Tri6-1 (dsDNA) DNA 1: GGGTCTGAAAGGCCTGGCAGGCCTGACAGGAGTG DNA 2: CACTCCTGTCAGGCCTGCCAGGCCTTTCAGACCC	no binding
Tri6-2 (dsDNA) DNA 1: CTCAGCAGGATGAACAAGGGGTCTGAAAGGCCTGGC DNA 2: GCCAGGCCTTTCAGACCCCTTGTTCATCCTGCTGAG	no binding
Tri6-3 (dsDNA) DNA 1: GGCAGGCCTGACAGGAGTGATAAAATGTGAGAAGAG DNA 2: CTCTTCTCACATTTTATCACTCCTGTCAGGCCTGCC	binds
